# Values of other authors as cited in publication PMC8291337.
# Target: Spike protein (SARS-CoV-2) (UniProt P0DTC2)
substance,measurement,value
CD147 (from UniProt P35613),Kd,185 nM
